Results from IntAct's records for PubMed 17053789.

B1: Protection of telomeres protein 1 (Mus musculus), Q91WC1 (parent)
chain: MSLVSTAPYTYTPLNLLKEGTIANVYGVVKFFKPPYVSKGTDYCSVVTIVDQTNVKLTCMLFSGNYEALPIIYKVGDIVRFHRLKIQVYKNELQGINCSGFASLTFEGTVGMPVTARTSSKVFSFTPQDQKMVEALRVWASKHISASSTLVQLCDAQPMQYYDLTCQLLGKAQVDSTAFLLKVWDGTQTVLPSWRVSTQDLTFEGDLSHIERLQSLVVDILVYDNHVQVARSIEVGCFLRLYSLHTKLQPGNSETSSSESLRLEFHLHGGTSYGRGIRVLPDTSPCVDQLKKALEGANLPVTETSTGICQSENGDSSALSNSGSGAVSPYEEERCQQVSATILTNHQHLEKTPLCAILTQKAPQQYRVRAKLRSYLPRRLSQSVKLLCPKCHSVQEVPHGDSLDKILQDAATEAPDIKLKATSLYYSKVWTTEDQGGRQVAVHFVKNNGILPASSECLILIEGGRLCEVSKLSSKFHSVMPVRSGPESLELLTLSAPFLIQGKVHHYGCKQCSSLKPIQNLNSRFHKGPWTPSSVAEALGVVPLQYVFVMVFTLDDGTGVLEAYLKDSEHFFKIPASEVLTDDDLQRSLETIMDMICPPGIKVDAYPWLECLLKSYNVTIGTERRICYQIFDTTVAENVV
partner: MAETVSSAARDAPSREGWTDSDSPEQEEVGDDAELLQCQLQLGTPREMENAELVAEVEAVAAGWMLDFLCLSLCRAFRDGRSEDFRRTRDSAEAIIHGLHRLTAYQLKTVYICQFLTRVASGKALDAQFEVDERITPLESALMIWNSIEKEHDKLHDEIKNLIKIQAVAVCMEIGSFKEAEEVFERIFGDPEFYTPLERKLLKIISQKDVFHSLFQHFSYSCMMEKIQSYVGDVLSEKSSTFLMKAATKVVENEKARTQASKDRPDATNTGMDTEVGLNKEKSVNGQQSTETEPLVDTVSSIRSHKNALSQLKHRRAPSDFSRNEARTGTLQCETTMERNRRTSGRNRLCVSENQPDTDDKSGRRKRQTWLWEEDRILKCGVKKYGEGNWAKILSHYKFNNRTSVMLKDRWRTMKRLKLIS

Variants of: B1
Settings: with terf1_mouse Terf1, P70371

effect of a mutation on the interaction	Variant
disrupting interaction	Y223A
